{"source": "patent US20260167699A1", "about": "(Chugai, published 2026)", "binders": {"B1": {"name": "GpH7-A5/GpH7-B3 variant K334_15Y/GpL16-k0 (antibody, human IgG1, kappa)", "heavy 1": "not shown", "heavy 2": "not shown", "light": "DIVMTQSPLSLPVTPGEPASISCQASESLVHSNRNTYLHWYLQKPGQSPQLLIYKVSNRFSGVPDRFSGSGSGTDFTLKISRVEAEDVGVYYCSQNTHVPPTFGQGTKVEIERTVAAPSVFIFPPSDEQLKSGTASVVCLLNNFYPREAKVQWKVDNALQSGNSQESVTEQDSKDSTYSLSSTLTLSKADYEKHKVYACEVTHQGLSSPVTKSFNRGEC", "notes": "copies: 1 + 1 + 2"}, "B2": {"name": "GpH7-A5/GpH7-B3 variant L234_02A/GpL16-k0 (antibody, human IgG1, kappa)", "heavy 1": "not shown", "heavy 2": "not shown", "light": "B1 light", "notes": "copies: 1 + 1 + 2"}, "B3": {"name": "GpH7-A5/GpH7-B3 variant L328_04F/GpL16-k0 (antibody, human IgG1, kappa)", "heavy 1": "not shown", "heavy 2": "not shown", "light": "B1 light", "notes": "copies: 1 + 1 + 2"}, "B4": {"name": "GpH7-A5/GpH7-B3 variant P238_15Y/GpL16-k0 (antibody, human IgG1, kappa)", "heavy 1": "not shown", "heavy 2": "not shown", "light": "B1 light", "notes": "copies: 1 + 1 + 2"}, "B5": {"name": "GpH7-A5/GpH7-B3 variant L234_16H/GpL16-k0 (antibody, human IgG1, kappa)", "heavy 1": "not shown", "heavy 2": "not shown", "light": "B1 light", "notes": "copies: 1 + 1 + 2"}, "B6": {"name": "GpH7-A5/GpH7-B3 variant L235_14T/GpL16-k0 (antibody, human IgG1, kappa)", "heavy 1": "not shown", "heavy 2": "not shown", "light": "B1 light", "notes": "copies: 1 + 1 + 2"}, "B7": {"name": "GpH7-A5/GpH7-B3 variant L235_05P/GpL16-k0 (antibody, human IgG1, kappa)", "heavy 1": "not shown", "heavy 2": "not shown", "light": "B1 light", "notes": "copies: 1 + 1 + 2"}, "B8": {"name": "GpH7-A5/GpH7-B3 variant L328_16H/GpL16-k0 (antibody, human IgG1, kappa)", "heavy 1": "not shown", "heavy 2": "not shown", "light": "B1 light", "notes": "copies: 1 + 1 + 2"}, "B9": {"name": "GpH7-A5/GpH7-B3 variant L234_20W/GpL16-k0 (antibody, human IgG1, kappa)", "heavy 1": "not shown", "heavy 2": "not shown", "light": "B1 light", "notes": "copies: 1 + 1 + 2"}, "B10": {"name": "GpH7-A5/GpH7-B3 variant L235_06M/GpL16-k0 (antibody, human IgG1, kappa)", "heavy 1": "not shown", "heavy 2": "not shown", "light": "B1 light", "notes": "copies: 1 + 1 + 2"}, "B11": {"name": "GpH7-A5/GpH7-B3 variant L234_18N/GpL16-k0 (antibody, human IgG1, kappa)", "heavy 1": "not shown", "heavy 2": "not shown", "light": "B1 light", "notes": "copies: 1 + 1 + 2"}, "B12": {"name": "GpH7-A5/GpH7-B3 variant K334_16H/GpL16-k0 (antibody, human IgG1, kappa)", "heavy 1": "not shown", "heavy 2": "not shown", "light": "B1 light", "notes": "copies: 1 + 1 + 2"}, "B13": {"name": "GpH7-A5/GpH7-B3 variant L234_19Q/GpL16-k0 (antibody, human IgG1, kappa)", "heavy 1": "not shown", "heavy 2": "not shown", "light": "B1 light", "notes": "copies: 1 + 1 + 2"}, "B14": {"name": "GpH7-A5/GpH7-B3 variant K334_20W/GpL16-k0 (antibody, human IgG1, kappa)", "heavy 1": "not shown", "heavy 2": "not shown", "light": "B1 light", "notes": "copies: 1 + 1 + 2"}, "B15": {"name": "GpH7-A5/GpH7-B3 variant L328_10E/GpL16-k0 (antibody, human IgG1, kappa)", "heavy 1": "not shown", "heavy 2": "not shown", "light": "B1 light", "notes": "copies: 1 + 1 + 2"}, "B16": {"name": "GpH7-A5/GpH7-B3 variant L234_07I/GpL16-k0 (antibody, human IgG1, kappa)", "heavy 1": "not shown", "heavy 2": "not shown", "light": "B1 light", "notes": "copies: 1 + 1 + 2"}, "B17": {"name": "GpH7-A5/GpH7-B3 variant L235_07I/GpL16-k0 (antibody, human IgG1, kappa)", "heavy 1": "not shown", "heavy 2": "not shown", "light": "B1 light", "notes": "copies: 1 + 1 + 2"}, "B18": {"name": "GpH7-A5/GpH7-B3 variant L234_03V/GpL16-k0 (antibody, human IgG1, kappa)", "heavy 1": "not shown", "heavy 2": "not shown", "light": "B1 light", "notes": "copies: 1 + 1 + 2"}, "B19": {"name": "GpH7-A5/GpH7-B3 variant L328_15Y/GpL16-k0 (antibody, human IgG1, kappa)", "heavy 1": "not shown", "heavy 2": "not shown", "light": "B1 light", "notes": "copies: 1 + 1 + 2"}, "B20": {"name": "GpH7-A5/GpH7-B3 variant L328_19Q/GpL16-k0 (antibody, human IgG1, kappa)", "heavy 1": "not shown", "heavy 2": "not shown", "light": "B1 light", "notes": "copies: 1 + 1 + 2"}, "B21": {"name": "GpH7-A5/GpH7-B3 variant N325_16H/GpL16-k0 (antibody, human IgG1, kappa)", "heavy 1": "not shown", "heavy 2": "not shown", "light": "B1 light", "notes": "copies: 1 + 1 + 2"}, "B22": {"name": "GpH7-A5/GpH7-B3 variant L234_15Y/GpL16-k0 (antibody, human IgG1, kappa)", "heavy 1": "not shown", "heavy 2": "not shown", "light": "B1 light", "notes": "copies: 1 + 1 + 2"}, "B23": {"name": "GpH7-A5/GpH7-B3 variant P238_09D/GpL16-k0 (antibody, human IgG1, kappa)", "heavy 1": "not shown", "heavy 2": "not shown", "light": "B1 light", "notes": "copies: 1 + 1 + 2"}, "B24": {"name": "GpH7-A5/GpH7-B3 variant K334_18N/GpL16-k0 (antibody, human IgG1, kappa)", "heavy 1": "not shown", "heavy 2": "not shown", "light": "B1 light", "notes": "copies: 1 + 1 + 2"}, "B25": {"name": "GpH7-A5/GpH7-B3 variant L235_16H/GpL16-k0 (antibody, human IgG1, kappa)", "heavy 1": "not shown", "heavy 2": "not shown", "light": "B1 light", "notes": "copies: 1 + 1 + 2"}, "B26": {"name": "GpH7-A5/GpH7-B3 variant L234_13S/GpL16-k0 (antibody, human IgG1, kappa)", "heavy 1": "not shown", "heavy 2": "not shown", "light": "B1 light", "notes": "copies: 1 + 1 + 2"}, "B27": {"name": "GpH7-A5/GpH7-B3 variant L234_01G/GpL16-k0 (antibody, human IgG1, kappa)", "heavy 1": "not shown", "heavy 2": "not shown", "light": "B1 light", "notes": "copies: 1 + 1 + 2"}, "B28": {"name": "GpH7-A5/GpH7-B3 variant L235_18N/GpL16-k0 (antibody, human IgG1, kappa)", "heavy 1": "not shown", "heavy 2": "not shown", "light": "B1 light", "notes": "copies: 1 + 1 + 2"}}, "data": [{"target": "T1, FcγRIIIa (human, UniProt P08637 17-208)", "T1 construct": "extracellular domain; also called 3a; FcγRIIIa extracellular domain", "T1 sequence (P08637 other isoform, or with tags, fused parts or gaps)": "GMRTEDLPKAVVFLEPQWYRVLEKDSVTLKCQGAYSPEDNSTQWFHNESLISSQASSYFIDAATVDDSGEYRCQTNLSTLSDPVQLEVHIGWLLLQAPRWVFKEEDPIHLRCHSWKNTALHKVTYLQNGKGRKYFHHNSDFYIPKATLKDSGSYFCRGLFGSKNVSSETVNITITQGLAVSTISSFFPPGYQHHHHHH", "assay": "SPR (Biacore);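 further: antibody variants captured on an SPR sensor chip, with FcγRIIIa passed over as analyte in HBS-EP+ buffer at 25 °C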", "values": [{"binder": "B1", "He/Con 3a": "145 % of GpH7-A5/GpH7-B3/GpL16-k0"}, {"binder": "B2", "He/Con 3a": "69.7 % of GpH7-A5/GpH7-B3/GpL16-k0"}, {"binder": "B3", "He/Con 3a": "81.5 % of GpH7-A5/GpH7-B3/GpL16-k0"}, {"binder": "B4", "He/Con 3a": "61 % of GpH7-A5/GpH7-B3/GpL16-k0"}, {"binder": "B5", "He/Con 3a": "76.8 % of GpH7-A5/GpH7-B3/GpL16-k0"}, {"binder": "B6", "He/Con 3a": "73.2 % of GpH7-A5/GpH7-B3/GpL16-k0"}, {"binder": "B7", "He/Con 3a": "68.6 % of GpH7-A5/GpH7-B3/GpL16-k0"}, {"binder": "B8", "He/Con 3a": "55.9 % of GpH7-A5/GpH7-B3/GpL16-k0"}, {"binder": "B9", "He/Con 3a": "103 % of GpH7-A5/GpH7-B3/GpL16-k0"}, {"binder": "B10", "He/Con 3a": "75.6 % of GpH7-A5/GpH7-B3/GpL16-k0"}, {"binder": "B11", "He/Con 3a": "88.2 % of GpH7-A5/GpH7-B3/GpL16-k0"}, {"binder": "B12", "He/Con 3a": "138 % of GpH7-A5/GpH7-B3/GpL16-k0"}, {"binder": "B13", "He/Con 3a": "77.1 % of GpH7-A5/GpH7-B3/GpL16-k0"}, {"binder": "B14", "He/Con 3a": "132 % of GpH7-A5/GpH7-B3/GpL16-k0"}, {"binder": "B15", "He/Con 3a": "54.9 % of GpH7-A5/GpH7-B3/GpL16-k0"}, {"binder": "B16", "He/Con 3a": "99.5 % of GpH7-A5/GpH7-B3/GpL16-k0"}, {"binder": "B17", "He/Con 3a": "92.8 % of GpH7-A5/GpH7-B3/GpL16-k0"}, {"binder": "B18", "He/Con 3a": "88.3 % of GpH7-A5/GpH7-B3/GpL16-k0"}, {"binder": "B19", "He/Con 3a": "70.2 % of GpH7-A5/GpH7-B3/GpL16-k0"}, {"binder": "B20", "He/Con 3a": "83.4 % of GpH7-A5/GpH7-B3/GpL16-k0"}, {"binder": "B21", "He/Con 3a": "68 % of GpH7-A5/GpH7-B3/GpL16-k0"}, {"binder": "B22", "He/Con 3a": "126 % of GpH7-A5/GpH7-B3/GpL16-k0"}, {"binder": "B23", "He/Con 3a": "100 % of GpH7-A5/GpH7-B3/GpL16-k0"}, {"binder": "B24", "He/Con 3a": "140 % of GpH7-A5/GpH7-B3/GpL16-k0"}, {"binder": "B25", "He/Con 3a": "57.1 % of GpH7-A5/GpH7-B3/GpL16-k0"}, {"binder": "B26", "He/Con 3a": "68.1 % of GpH7-A5/GpH7-B3/GpL16-k0"}, {"binder": "B27", "He/Con 3a": "55.8 % of GpH7-A5/GpH7-B3/GpL16-k0"}, {"binder": "B28", "He/Con 3a": "65 % of GpH7-A5/GpH7-B3/GpL16-k0"}]}]}
